Consider 2 molecules from patent publication US20250002594A1 (SHANGHAI EPIMAB BIOTHERAPEUTICS, published 2025).

Numbering of substitutions follows the chain as printed.

By EC50 is commonly meant the midpoint of the concentration-response curve. Read a low EC50 as higher potency in that assay. One may read the Kd as a measure of binding affinity in units of concentration. The term koff denotes the rate constant with which the complex falls apart. The kon is the second-order rate constant of association.

The target in assay [1] is T1, human CD122 on HEK293 cells (human, UniProt P14784 27-551).
T1 construct: whole, on cells; also called cell surface CD122
T1 sequence (looked up): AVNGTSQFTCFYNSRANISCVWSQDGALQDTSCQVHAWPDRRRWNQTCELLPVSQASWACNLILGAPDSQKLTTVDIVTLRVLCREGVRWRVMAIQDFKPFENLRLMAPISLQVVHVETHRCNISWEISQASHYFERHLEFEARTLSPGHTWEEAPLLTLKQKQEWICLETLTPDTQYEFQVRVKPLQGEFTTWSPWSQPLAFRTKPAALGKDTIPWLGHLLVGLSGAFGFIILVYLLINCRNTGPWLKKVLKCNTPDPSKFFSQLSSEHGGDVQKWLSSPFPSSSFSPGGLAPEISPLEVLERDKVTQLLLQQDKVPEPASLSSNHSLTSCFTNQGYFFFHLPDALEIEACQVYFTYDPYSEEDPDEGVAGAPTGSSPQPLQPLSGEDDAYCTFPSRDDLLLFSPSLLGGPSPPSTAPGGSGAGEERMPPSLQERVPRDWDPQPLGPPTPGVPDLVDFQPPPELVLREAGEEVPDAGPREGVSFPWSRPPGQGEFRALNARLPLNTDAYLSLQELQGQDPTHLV
As to the kind of experiment: Flow cytometry (MFI) on HEK293 cells overexpressing human CD122; the table gives no unit, the axis is Fab conc.(nM). Here is the method: (§1) Briefly, a 96-well plate was seeded with 3×10⁵ cells each well, centrifuged at 400 g for 5 minutes and supernatants discarded, then added 100 μl of antibody (5× serial dilutions, 0.0064 to 100 nM) each well and gently mixed. After 60 minutes of incubation at 4° C., plates were washed several times to remove excess antibodies. Secondary fluorochrome-conjugated goat anti-human IgG antibody (Jackson Immunoresearch, Cat No. 109-606-098) was then added and incubated with cells at 4° C. for 20 minutes. After another round of centrifugation and washing, cells were resuspended in assay buffer (1X PBS containing 2% FBS) for reading on a flow-cytometer. Median Fluorescence Intensity (MFI) readouts were plotted against antibody concentration and analyzed with GraphPad Prism 6.0 software.
In general terms: Flow cytometry measures light scatter and fluorescence of single cells or particles in a stream.

Assay [2] has as its target T2, human CD132 on HEK293 cells (human, UniProt P31785 23-369).
T2 construct: whole, on cells; also called cell surface CD132
T2 sequence (looked up): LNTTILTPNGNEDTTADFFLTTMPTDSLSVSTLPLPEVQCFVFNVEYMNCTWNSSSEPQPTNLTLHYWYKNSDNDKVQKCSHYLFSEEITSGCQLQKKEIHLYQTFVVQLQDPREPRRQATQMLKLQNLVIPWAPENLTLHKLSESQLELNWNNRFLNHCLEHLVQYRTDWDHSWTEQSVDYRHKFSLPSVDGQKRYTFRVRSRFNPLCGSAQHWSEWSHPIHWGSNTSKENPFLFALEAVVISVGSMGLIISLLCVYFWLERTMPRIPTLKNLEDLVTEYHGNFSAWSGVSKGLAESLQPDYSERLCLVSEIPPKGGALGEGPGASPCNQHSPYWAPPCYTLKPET
The experiment in a line: Flow cytometry (MFI) on HEK293 cells overexpressing human CD132; the table gives no unit, the axis is Fab conc.(nM). Here is the method:
as §1

In assay [3] the target is T3, CD122/CD132 complex on HEK-Blue IL-2 cells (UniProt P14784 27-551; P31785 23-369, limits assumed).
T3 sequence (looked up) 1: T1 sequence (looked up)
T3 sequence (looked up) 2: T2 sequence (looked up)
As to the kind of experiment: cell-based or functional assay.

Assay [4] deals with T4, recombinant human CD122 (human, UniProt P14784 27-239, limits assumed).
T4 construct: also called IL-2Rβ
T4 sequence (looked up): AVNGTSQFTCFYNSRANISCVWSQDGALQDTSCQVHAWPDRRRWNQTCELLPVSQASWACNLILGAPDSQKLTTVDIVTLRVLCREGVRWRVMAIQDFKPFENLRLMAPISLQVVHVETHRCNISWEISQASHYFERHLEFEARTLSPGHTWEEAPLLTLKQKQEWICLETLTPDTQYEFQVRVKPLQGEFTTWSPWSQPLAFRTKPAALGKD
As to the kind of experiment: GCI (WAVEsystem), FIT-Ig captured by anti-human IgG Fc, antigen in solution. Here is the method:
(§2) Binding affinity and kinetics constants of humanized CD122/CD132 FIT-Ig were determined using a label-free biosensor on WAVEsystem (Creoptix AG, Switzerland) by grating-coupled interferometry (GCI). Briefly, a PCP WAVEchip (Creoptix AG) was pre-immobilized with goat anti-human IgG Fc antibody to a density of 3830 pg/mm² by amine coupling, and used to capture humanized CD122/CD132 FIT-Ig generated from Example 3.2.1 to a density of ˜90 pg/mm², then exposed to recombinant human/cyno CD122 or CD132 serially diluted (3× dilutions from 200 nM to […] for human CD122, human CD132 and cyno CD132, respectively; and from 1000 nM to 1.37 nM for cyno CD122) in 1X HBS-EP+ buffer (Cytiva, Cat No. BR100669) by injection at 60 μL/min for 250s to assess association, followed by 1200s dissociation. After each round of association and dissociation, WAVEchip surface was regenerated by subject to pH 1.5 Glycine-HCl buffer injection at 60 μL/min for 120s. Sensorgrams were recorded at 25° C., the data were analyzed on WAVEcontrol (Creoptix AG) and double referenced by subtracting the signals from blank injections and the reference channel. A Langmuir 1:1 model was used for data fitting.

The target in assay [5] is T5, recombinant human CD132 (human, UniProt P31785 23-262, limits assumed).
T5 construct: also called IL-2Rγ
T5 sequence (looked up): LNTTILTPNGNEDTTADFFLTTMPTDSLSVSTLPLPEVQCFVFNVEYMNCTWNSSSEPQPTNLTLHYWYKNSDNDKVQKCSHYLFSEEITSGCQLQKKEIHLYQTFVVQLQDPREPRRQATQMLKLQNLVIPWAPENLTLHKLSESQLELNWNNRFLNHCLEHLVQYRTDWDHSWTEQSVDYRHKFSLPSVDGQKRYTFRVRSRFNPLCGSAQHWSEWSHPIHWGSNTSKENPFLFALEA
Described as above. How it is done: as §2

Assay [6] has as its target T6, recombinant cyno CD122 (cynomolgus, UniProt Q38J85 27-239, limits assumed).
T6 construct: also called cynomolgus CD122
T6 sequence (looked up): T4 sequence (looked up) with Q7R, A66T, T74A, L83M, V92M, E127K, L158M
The description is as above. How it is done:
as §2

The target in assay [7] is T7, recombinant cyno CD132 (cynomolgus, UniProt A0A2K5VGJ6 23-262).
T7 construct: also called cynomolgus CD132
T7 sequence: T5 sequence (looked up) with T14A, A16T, T22S, H141R, T228S
The description is as above. Here is the method: as §2

Assay [8] addresses T1, human CD122 on HEK293 cells. As to the kind of experiment: Flow cytometry (Median-APC) on HEK293/CD122 cells; the box gives no unit, the axis is Ab conc.(nM). Here is the method:
as §1

The target of assay [9] is T2, human CD132 on HEK293 cells. The experiment in a line: Flow cytometry (Median-APC) on HEK293/CD132 cells; the box gives no unit, the axis is Ab conc.(nM); the curve has no upper plateau in the range shown. How it is done:
as §1

B1: Duo2019-86b (bispecific antibody, human IgG1, kappa, L234A L235A)
heavy 1: EVQLQQPGSELVRPGASVKLSCKASGYTFTSYWMHWMKQRPGQGLEWIGHIYLGGGATNYAEKFRSKATLTADTSSSTAYMQLSSLTSEDSAVYYCTRSQPYYYGMDSWGQGTSVTVSSASTKGPSVFPLAPSSKSTSGGTAALGCLVKDYFPEPVTVSWNSGALTSGVHTFPAVLQSSGLYSLSSVVTVPSSSLGTQTYICNVNHKPSNTKVDKKVEPKSCDKTHTCPPCPAPEAAGGPSVFLFPPKPKDTLMISRTPEVTCVVVDVSHEDPEVKFNWYVDGVEVHNAKTKPREEQYNSTYRVVSVLTVLHQDWLNGKEYKCKVSNKALPAPIEKTISKAKGQPREPQVYTLPPSREEMTKNQVSLTCLVKGFYPSDIAVEWESNGQPENNYKTTPPVLDSDGSFLLYSKLTVDKSRWQQGNVFSCSVMHEALHNHYTQKSLSLSPGK
light 1: DIQMTQTPSSLSASLGDRVTISCRASQDISNYLNWYQQKPDGTVKLLIYYKSRLHSGVPSRFSGSGSGTEYSLTINNLEQEDFATYFCHQGHTIPFTFGSGTKLEIKRTVAAPSVFIFPPSDEQLKSGTASVVCLLNNFYPREAKVQWKVDNALQSGNSQESVTEQDSKDSTYSLSSTLTLSKADYEKHKVYACEVTHQGLSSPVTKSFNRGEC
heavy 2: QVQLQQSGPELVKPGASVKMSCKASGYRFSDYVISWVKQRSGQGLEWIGEIYPGDGNTYYNEMFKGRATLTADKSPNTAYMKLSSLTSEDSALYFCARGSYTYDNYAMDFWGQGTSVTVSSASTKGPSVFPLAPSSKSTSGGTAALGCLVKDYFPEPVTVSWNSGALTSGVHTFPAVLQSSGLYSLSSVVTVPSSSLGTQTYICNVNHKPSNTKVDKKVEPKSCDKTHTCPPCPAPEAAGGPSVFLFPPKPKDTLMISRTPEVTCVVVDVSHEDPEVKFNWYVDGVEVHNAKTKPREEQYNSTYRVVSVLTVLHQDWLNGKEYKCKVSNKALPAPIEKTISKAKGQPREPQVYTLPPSREEMTKNQVSLTCLVKGFYPSDIAVEWESNGQPENNYKTTPPVLDSDGSFFLYSRLTVDKSRWQQGNVFSCSVMHEALHNHYTQKSLSLSPGK
light 2: DVLMTQTPLSLPVSLGDQASISCRSSQNIVHSNGNTYLEWYLQKPGQSPKLLIYKVSNRFSGVPDRFSGSGSGTDFTLKISRVEAEDLGLYYCFQGSHIPWTFGGGTKLEIKRTVAAPSVFIFPPSDEQLKSGTASVVCLLNNFYPREAKVQWKVDNALQSGNSQESVTEQDSKDSTYSLSSTLTLSKADYEKHKVYACEVTHQGLSSPVTKSFNRGEC
notes: 1+1 asymmetric IgG1 made by Fab-arm exchange; printed both as Duo2019-86 and Duo2019-86b
Consider B1, for which the results for the EC50 in [1] and in assay [2] were 1.63 nM and 11.4 nM, respectively.

B2: huFIT2019-86b-51 (bispecific antibody, human IgG1, kappa, L234A L235A)
chain 1: not shown
chain 2: EVQLVQSGAEVKKPGASVKVSCKASGYTFTDYVISWVRQATGQGLEWMGEIYPGDAQTYYNEMFKGRVTMTRDTSISTAYMELSSLRSEDTAVYYCARGSYTYDNYAMDFWGQGTTVTVSSASTKGPSVFPLAPSSKSTSGGTAALGCLVKDYFPEPVTVSWNSGALTSGVHTFPAVLQSSGLYSLSSVVTVPSSSLGTQTYICNVNHKPSNTKVDKKVEPKSC
chain 3: not shown
notes: also called huFIT2019-8b-51
B2: the “EC50 from SEAP reporter gene assay” value in [3] was determined as 0.19 nM. Besides, the Kd stood at 17.1 nM in assay [4], 9.02 nM in [5], 91.6 nM in assay [6] and 10.6 nM in [7]. Also, the koff came out at 0.00107 s⁻¹ in assay [4], 0.000339 s⁻¹ in assay [5], 0.00697 s⁻¹ in assay [6] and 0.000286 s⁻¹ in assay [7]. Further, the kon turned out to be 62700 M⁻¹ s⁻¹ in [4], 37500 M⁻¹ s⁻¹ in assay [5], 76100 M⁻¹ s⁻¹ in assay [6] and 27000 M⁻¹ s⁻¹ in assay [7]. Also, the EC50 is 5.27 nM in assay [8] and 17.8 nM in assay [9].
